Earlier results in PMC12748512.
Like-named read-outs stand apart in the source and are kept apart here.

What was measured:
[1] = molecular target: IL-2Rβ-γc complex (Homo sapiens) (UniProt P14784)
[2] = molecular target: IL-2Rβ-γc complex (Homo sapiens) (UniProt P14784); remark: listed apart in the source

Sequence of UniProt P14784 (P14784 27-240, chain 1 of 2): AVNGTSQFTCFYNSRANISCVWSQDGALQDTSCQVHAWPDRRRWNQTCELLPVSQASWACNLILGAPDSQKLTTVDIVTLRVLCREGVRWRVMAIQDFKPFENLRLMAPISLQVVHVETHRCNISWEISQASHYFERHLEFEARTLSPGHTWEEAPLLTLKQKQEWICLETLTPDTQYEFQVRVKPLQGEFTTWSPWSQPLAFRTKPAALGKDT
Sequence of UniProt P14784 (P31785 23-262, chain 2 of 2, further chain): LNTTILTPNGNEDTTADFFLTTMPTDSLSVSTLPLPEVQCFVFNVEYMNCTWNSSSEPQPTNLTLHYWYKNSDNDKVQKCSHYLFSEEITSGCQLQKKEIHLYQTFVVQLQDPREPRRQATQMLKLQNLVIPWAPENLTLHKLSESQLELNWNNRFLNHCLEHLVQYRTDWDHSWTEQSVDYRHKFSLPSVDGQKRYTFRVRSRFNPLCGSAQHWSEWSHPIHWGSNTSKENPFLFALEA

Substance	Kd [1]	Kd [2]
IL-15 (from UniProt P40933)	1 nM	–
IL-2 (from UniProt P60568)	–	1 nM
